From the nanobody polyreactivity screen of Harvey et al. (2022)

Assay: yeast display, Sf9 membrane polyspecificity reagent, FACS + sequencing; frameworks hold sequencing errors
Outline: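 Nanobodies came from a synthetic yeast display library in Saccharomyces cerevisiae BJ5465, induced with galactose for 36–48 hours and stained for 1 hour at 4 °C with 10% biotinylated, detergent-solubilized Sf9 membrane reagent. Cells were enriched on streptavidin microbeads and then FACS-sorted, with low and high (top ~1%) gates set on anti-HA fluorescence for expression and streptavidin fluorescence for reagent binding. Each polyreactivity label reflects the gate a clone came from. Genes were amplified by colony PCR, sequenced by MiSeq 2 × 250 and filtered by CDR length.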

Sequence	polyreactivity (PSR sort gate)
QVQLVESGGGLVQAGGSLRLSCAASGITFGRDAMGWYRQARGKERELVAAISRGSGSTYSADSVKGRFTISRDNAKNTVYLQMHSLKPEDTAVYYCGKVVRVGMGYWGQGTQVTVSS	high polyreactivity
QVQLVESGGGLVQAGGSLRLSCAASGITFGRNTMGWSRQAPGKERELVAAIDSGGNTYADSVKGRFTISRDNAKNTVYLQMNSLKPEDTAVYYCAVDGGEFSSYGYWGQGTQVTVSS	low polyreactivity
QVQLVESGGGLVQAGGSLRLSCAASGITFGRNTMGWYRQAPGKERELVAAIDSGGNTYADSVKGRFTISRDNAKNTVYLQMNSLKPEDTAVYYCATVADEPRAYSGYEESDYWGQGTQVTVSS	low polyreactivity
QVQLVESGGGLVQAGGSLRLSCAASGITFGRNTMGWYRQAPGKERELVAAIDSGGNTYADSVKGRFTISRDNAKNTVYLQMNSLKPEDTAVYYCDVDGGEFSSYGYWGQGTLVTVSS	low polyreactivity
QVQLVESGGGLVQAGGSLRLSCAASGITFGRYAMGSYRQPPGKEREFVAAISWSGGSTYYADSVKGRFTISLDNATNPVYLQINSLKPEDTAVYYCAVEWYYTSYHIRVYRDNYWGQGTQVTVSS	high polyreactivity
QVQLVESGGGLVQAGGSLRLSCAASGITFGRYAMGWYRQAPGKERELVAAISRGSGSTYYADSVKGRFTISRDNAKNTVYLQMNSLKPEDTAVYYCAKVVRVGMGYWGQGTQVTVSS	high polyreactivity
QVQLVESGGGLVQAGGSLRLSCAASGITFGTYAMGWYRQAPGKERELVAAISQSSGRTYYADSVKGRFTISRDNAKNSVYLQMNSLKPEDTAVYYCADRTRGSSRGDYDYWGQGTQVTVSS	high polyreactivity
QVQLVESGGGLVQAGGSLRLSCAASGITFGVNTMGWYRQAPGKERELVAAITWRGGSTYYADSVKGRFTISRDNAQNTVYLQMNSLIPEDTAVYYCAAQPIWPGGQELDYWGQGTQVTVSS	low polyreactivity
QVQLVESGGGLVQAGGSLRLSCAASGITFGYYAMGWSRQAPGKERELVAAISWSGGRTYYADSVKGRFTMSRDNAKNTVYLQMNSLKPEDTAVYYCAADYWYYRGGYPMDYWGQGTQVTVSS	high polyreactivity
QVQLVESGGGLVQAGGSLRLSCAASGITFGYYTMGWYRQAPGKEREFDAAISSTGGTYYADSVKGRFTISRDNAQNTVYLQMNSLKPEDTAVYYCAATFIQVVVNVQLYDYDYWGQGTQVTVSS	low polyreactivity
QVQLVESGGGLVQAGGSLRLSCAASGITFHANAMGWNRQARGKERELVPAINWSGGSTYYADSVKGRFTISRDNAKNTVYLQMNSLKPEDTAVYYCAAELWGLFDYWGQGTQVTVSS	low polyreactivity
QVQLVESGGGLVQAGGSLRLSCAASGITFHSYAMGWYRQAPGKERELVAGISSGGSTNYADSVKGRFTISRDNAKNTVYLQMNSLKPEDTAVYYCAVLNHRVDSVLTRYYYWGQGTQVTVSS	low polyreactivity
QVQLVESGGGLVQAGGSLRLSCAASGITFILYDMGWYRQAPGKERELVAGITSGDGDSTYYADSVKGRFTISRDNAKNTVYLQMNSLKPEDTAVYYCAADFTVGYYREYYYWGQGTQVTVSS	low polyreactivity
QVQLVESGGGLVQAGGSLRLSCAASGITFIRYAMGWYRQAPGKERELVAAISKDGDSTYYADSVKGRFTISRDNAKNTVYLQMNSLKPEDSGVYYCAAQRYSKALYNYWGQGTQVTVSS	high polyreactivity
QVQLVESGGGLVQAGGSLRLSCAASGITFIRYAMGWYTQAPGKERELVAAIDRSGGSTYYADSVKGRFTISRDTAKNTVYLQMNSLKPEDTAVYYCAARRVRGLDYWGQGTQVTVSS	high polyreactivity
QVQLVESGGGLVQAGGSLRLSCAASGITFKAYAMGWYRQAPGKERELVAAITGSGGRTYYADSVKGRFTISRDNAKNTVYLQMNSLKPEDTAVYYCAKTSSWYLRPKYYYWGQGTQVTVSS	high polyreactivity
QVQLVESGGGLVQAGGSLRLSCAASGITFKFYAMGWYRQAPGKERELVAVITSGGSTYYADSVKGRFTISRDNAKNTVYLQMTSLKPEDTAVFYCASGGNGLYRAYPFYYWGQGTQVTVSS	high polyreactivity
QVQLVESGGGLVQAGGSLRLSCAASGITFKGYTMGWYRQAPGKERELVATISRGGRTYAVSVKGRFTISRDNAKNTVYLQMNSLKPEDTAVYYCAADKYWAQNDYWGQGTQVTVSS	low polyreactivity
QVQLVESGGGLVQAGGSLRLSCAASGITFKPYGMGWYRQAPGKERELVATISWSGGSTNYADSVKGRFTISRDNAKNTVYLQMNILKPEDTAVYYCAATSYSHTEIRYDYWGQGTQVTVSS	low polyreactivity
QVQLVESGGGLVQAGGSLRLSCAASGITFKRYAMGWYRQAPRKERELVAAITTSGGSTYYADSVKGRFTNSRDNAKNTVYLLMNSLKPEDTAVNYCNAEDYWGKYYYWGQGTQVTVSS	low polyreactivity
QVQLVESGGGLVQAGGSLRLSCAASGITFKRYTMGWYRQAPGKERELVAANSRSGGSTYYADSVKGRFTISRDTAKNTVYLQMNSLKPEDTAVYYCAAAVGGYNVAYDYWGQGTQVTVSS	high polyreactivity
QVQLVESGGGLVQAGGSLRLSCAASGITFKSNAMGWYRQAPGKERELVAAISRRASSTYYADSVKGRFTISRDNAKNTVYLQMNSLKPEDTAVYYCAARSTVLATVSYPFGRYYWGQGTQVTVSS	high polyreactivity

Sequence	polyreactivity (PSR sort gate)
QVQLVESGGGLVQAGGSLRLSCAASGITFKYYAMGWYRQAPGKERELVAAISRSGGTTYYADSVKGRFTISRDNAKNTVYLQMNSLKPEDTAVYYCNKYTHYYDYDYWGQGTQVTVSS	high polyreactivity
QVQLVESGGGLVQAGGSLRLSCAASGITFKYYTMGWYRQAPGKERELVAAITADTGTTYYADSVKGRFTISRDNAKNTVYLQMNSLKPEDTAVYYCATRDVFYDDDYWGQGTQVTVSS	high polyreactivity
QVQLVESGGGLVQAGGSLRLSCAASGITFKYYTMGWYRQAPGKERELVAAITSRAGRTYADSVKGRFTISRDNAKNTVYLQMNSLKPEDTAVYYCARRVDYPYAYDYWGQGTQVTVSS	high polyreactivity
QVQLVESGGGLVQAGGSLRLSCAASGITFLGNAMGWYRQAPGKERELVAAISASGGRTYYADSVKGRFTISRDNAKNTVYLQMNSLKPEDTPVYYCAAASKPWYYYWGQGTQVTVSS	high polyreactivity
QVQLVESGGGLVQAGGSLRLSCAASGITFLHYAMGWYRQAPGKERELVARITYSGSSTYYADSVKGRFTISRDNAKNTVYLQMNSVKPEDTAVYYCNARASWGRWSRTGTPRYDYWGQGTQVTVSS	high polyreactivity
QVQLVESGGGLVQAGGSLRLSCAASGITFLKNAMGWYRQAPGKERELVAAISSSGGSTYYADSVKGRFTISRDNAKNTVYLQMNSLKPEDTAVYYCAALSVGKRYRYEYWGQGTQVTVSS	high polyreactivity
QVQLVESGGGLVQAGGSLRLSCAASGITFLSNAMGWYRQAPGKERELVAAISRGGGTTYYADSVKGRFTISRDIAKNTVYLQMNSLKPEDTAVYYCAKGRCSSSRFDYWGQVTQVTVSS	high polyreactivity
QVQLVESGGGLVQAGGSLRLSCAASGITFLYYAMGGYRQAPGKERELVAAITSGGSTYYADSVKGRFTISRDNAKNTVYLQMNSLKPEDTAVYYCAAGTYDGGYHYDYWGEGTQVTVSS	high polyreactivity
QVQLVESGGGLVQAGGSLRLSCAASGITFLYYAMGWYRQAPGKERELVAAISGGGASTYYADSVKGRFTSSRDNAKNTVYLQMNSLKPEDTAVYDCAAGYRDFFRARFGYWGQGTQVTVAS	high polyreactivity
QVQLVESGGGLVQAGGSLRLSCAASGITFLYYAMGWYRQAPGKERELVAAITRGGRTNYADSVKGRFTISRDNAKNTVYLQMNSLKPEDTAVYYCAARRSRPTYYSTGVNYWGQGTQVTVSS	high polyreactivity
QVQLVESGGGLVQAGGSLRLSCAASGITFLYYAMGWYRQAPGKERELVAGISGTGGRTYYADSVKGRFTISRDNAKNTVYLQMNSLKPEDTAVYYCAARRTTWGYGYWGQGTQVTVSS	high polyreactivity
QVQLVESGGGLVQAGGSLRLSCAASGITFNDYALGWYRQAPGKERELDAAIDWSGGRTYYADSVKGRFTISRDNAKNTVYLQMNSLKPEDTAVYYCAAVLYSRLFWYRLDYWGQGTQVTVSS	low polyreactivity
QVQLVESGGGLVQAGGSLRLSCAASGITFNHYAMGWSRQAPGKERELVAVISRTVGSTYYADSVKGRFTISRDNAKNTVYLQMNSLKPEDTAVYYCAARGPRPDGYSGRSDYWGQGTQVTVSS	high polyreactivity
QVQLVESGGGLVQAGGSLRLSCAASGITFNPNAMGLYRQAPGKERELVAVITYRGGSTYYADSVKGRFTISRDNAKNTVYLQMNSLKPEDTAVYYCAAQYIGWHLYWYDYWGQGTQVTVSS	low polyreactivity
QVQLVESGGGLVQAGGSLRLSCAASGITFNRYAMGWYRQAPGKERELVARISLRGGNTYYADSVKGRFTISRDNAKNTVYLQMNSLKPEDTAVYYCAVRGRASLRGTRYGYWGQGTQVTVSS	high polyreactivity
QVQLVESGGGLVQAGGSLRLSCAASGITFNRYAMGWYRQAPGKERELVARISLRGGNTYYADSVKGRFTISRDNAKNTVYLQMNSLKPEDTAVYYCNAPYYSRRGNSWGQGTQVTVSS	high polyreactivity
QVQLVESGGGLVQAGGSLRLSCAASGITFNVNAMGWYRQAPGKERELVAAISWRGGSTYYADSVKGRFTISRDNAKNTVYLQMNSLKPEDTAVYYCAAKLDGSSYYYWGQGTQVTVSS	low polyreactivity
QVQLVESGGGLVQAGGSLRLSCAASGITFNVNAMGWYRQAPGKERELVARITTSGGSTSYADSVKGRFTISRDNAKNTVYLQMNSLKPEYTAVYYCAADRARYYSEYDYWGQGTQVTVSS	low polyreactivity
QVQLVESGGGLVQAGGSLRLSCAASGITFNVYTMGWYRQAPGKERELVAAITSSGGSTYYADSVKGRFTISRDNAKNTVYLQMNSLKPEDTAVYYCAARGWTRYSPSSRWYDYWGQGTQVTVSS	high polyreactivity
QVQLVESGGGLVQAGGSLRLSCAASGITFNYYDMGWYRQEPWKARELVATINRSGGTTYYADSVKGRFTISRDTAKNTVYLQMNTMKPEDTAVYYCNALYSSRGRYHSGYDYWGQGTQVTVSS	high polyreactivity
QVQLVESGGGLVQAGGSLRLSCAASGITFPANAMGWYRQSPGKERELVADISESDGSTYYADSVKGRFTISRDNAKHTVYLQMNRLKPEDTAVYYRAADGTYGTRSDYWGQGTQVTVSS	low polyreactivity
